From patent publication US20210040189A1 (Amgen, published 2021)

How the values were obtained:
huDkk4 = target: T1, huDkk4 (human, UniProt Q9UBT3 19-224, limits assumed); assay: BiaCore
T1 sequence (looked up): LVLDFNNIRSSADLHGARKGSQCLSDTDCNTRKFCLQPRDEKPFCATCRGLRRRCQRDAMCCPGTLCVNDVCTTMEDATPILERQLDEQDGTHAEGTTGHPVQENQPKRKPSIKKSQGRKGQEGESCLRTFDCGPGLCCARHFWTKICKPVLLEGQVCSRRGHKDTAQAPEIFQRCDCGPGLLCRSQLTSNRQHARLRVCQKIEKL

CNBr1 = target: T2, CNBr1 (human, UniProt O94907 207-266); assay: BiaCore
T2 construct: Two peptides held together by 5 disulfide bonds; also called CNBr fragment of hDKK1 representing disulfide domain D2; not shown: added C-terminal flag peptide (positions 267-274)
T2 sequence 1: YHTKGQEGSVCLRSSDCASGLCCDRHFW
T2 sequence 2: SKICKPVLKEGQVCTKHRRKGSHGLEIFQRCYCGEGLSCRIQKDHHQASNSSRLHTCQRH

T2 = target: T3, T2 (human); assay: BiaCore
T3 construct: Five peptides held together by the five disulfide bonds of D1; from trypsin digestion of HuDKK1 alone; also called tryptic D1 fragment T2
T3 chain 1: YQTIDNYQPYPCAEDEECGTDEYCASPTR
T3 chain 2: GGDAGVQICLACR
T3 chain 3: CMR
T3 chain 4: HAMCCPGNYCK
T3 chain 5: NGICVSSDQNHFR

T3 = target: T4, T3 (human); assay: BiaCore
T4 construct: a separate HPLC peak; also called tryptic D1 fragment T3
T4 chain 1: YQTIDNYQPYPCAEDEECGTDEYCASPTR
T4 chain 2: GGDAGVQICLACR
T4 chain 3: CMR
T4 chain 4: HAMCCPGNYCK
T4 chain 5: NGICVSSDQNHFR

AspN1 = target: T5, AspN1 (human); assay: BiaCore
T5 construct: Two peptides held together by five disulfide bonds in D1
T5 chain 1: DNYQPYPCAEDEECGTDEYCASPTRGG
T5 chain 2: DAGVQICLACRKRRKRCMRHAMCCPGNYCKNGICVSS

AspN2 = target: T6, AspN2 (human); assay: BiaCore
T6 construct: a separate HPLC peak
T6 chain 1: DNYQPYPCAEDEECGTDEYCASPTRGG
T6 chain 2: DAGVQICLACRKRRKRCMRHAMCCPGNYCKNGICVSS

human DKK1 [1] = target: T7, human DKK1 (human, UniProt O94907 32-266); assay: BiaCore 2000
T7 construct: also called huDKK1; hDKK1
T7 sequence: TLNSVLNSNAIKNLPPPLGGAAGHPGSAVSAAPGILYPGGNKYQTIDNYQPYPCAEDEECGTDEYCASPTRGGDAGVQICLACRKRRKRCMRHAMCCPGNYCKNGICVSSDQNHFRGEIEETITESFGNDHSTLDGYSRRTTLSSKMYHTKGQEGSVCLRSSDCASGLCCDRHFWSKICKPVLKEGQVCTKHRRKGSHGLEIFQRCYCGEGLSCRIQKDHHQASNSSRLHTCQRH
Description: BiaCore allowed us to determine the kd of the selected antibodies.

human DKK1 [2] = target: T7, human DKK1; assay: cell-based or functional assay
T4 = target: T8, T4 (human); assay: BiaCore, competition with surface-bound DKK1
T8 construct: also called tryptic D1 peptide T4
T8 chain: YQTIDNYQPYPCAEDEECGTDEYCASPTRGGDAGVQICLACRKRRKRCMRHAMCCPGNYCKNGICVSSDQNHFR

human DKK1 [3] = target: T7, human DKK1; assay: KinExA 3000 equilibrium binding in solution
Description: (§1) Accordingly, the affinity of several of these antibodies to DKK1 was further assessed by an equilibrium binding analysis using the more sensitive KinExAtm 3000. For these measurements, Reacti-Gel 6× beads (Pierce, Rockford, Ill.) were pre-coated with human, cynomologous or mouse DKK1 and blocked with BSA. One hundred pM, 300 pM, or 1000 pM of the antibody was mixed with various concentrations of human, mouse or cyno DKK1, ranging in concentration from 1 pM to 50 nM, and equilibrated at room temperature for 8 hours. The mixtures were then passed over the DKK1-coated beads. The amount of bead-bound anti-DKK1 antibody was quantified using goat anti-human-IgG antibody labeled with a fluorescent tag (Cy5; Jackson Immuno Research, West Grove, Pa.). The amount of fluorescent signal measured was proportional to the concentration of free anti-DKK1 antibody in each reaction mixture at equilibrium. The dissociation equilibrium constant (Kd) was obtained from nonlinear regression of the competition curves using a dual-curve one-site homogeneous binding model using the KinExA software.

mouse DKK1 = target: T9, mouse DKK1 (mouse, UniProt O54908 32-272); assay: KinExA 3000 equilibrium binding in solution
T9 construct: also called murine DKK1
T9 sequence: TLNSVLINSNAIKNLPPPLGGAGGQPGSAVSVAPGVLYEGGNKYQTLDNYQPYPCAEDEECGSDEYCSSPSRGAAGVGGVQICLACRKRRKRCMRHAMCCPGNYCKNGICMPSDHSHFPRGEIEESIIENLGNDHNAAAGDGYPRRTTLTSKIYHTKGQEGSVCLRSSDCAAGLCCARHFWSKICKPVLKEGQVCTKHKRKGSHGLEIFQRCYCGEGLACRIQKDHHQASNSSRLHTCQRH
Description: as §1

B1: 5.25.1 (antibody, V domains shown)
VH: QVQLVQSGAEVKKPGASVKVSCKASGYTFTSYDINWVRQATGQGLEWMGWMDPNSGNTGYAQKFQGRVTMTRNTSISTAFMELSSLRSEDTAVYYCARTDYFYFGMDVWGQGTTVTVSS
VL: DIQMTQSPSSLSASVGDRVTITCQASQDISKDLNWYQQKPGKAPRLLIYDASNLETGVPSRFSGSGSGTDFTFTISSLQPEDIATFYCQQYDHLPIAFGQGTRLEIK
notes: Fully human hybridoma IgG, kappa (Vk)
Question: What does the source list for B1?
Answer: binding result (huDkk4): no binding; binding result (CNBr1): no binding; binding result (T2): no binding; binding result (T3): no binding; binding result (AspN1): binds; binding result (AspN2): binds; koff (human DKK1 [1]): < 2e-05 s⁻¹; ST2 EC50 (human DKK1 [2]): 5.96 nM; TCF EC50 (human DKK1 [2]): 1.88 nM; binding result (T4): binds; Kd (human DKK1 [3]): 0.003 nM; Kd (mouse DKK1): 0.15 nM
